Source: US20150125431A1 (ZEALAND PHARMA A S, published 2015)
Non-standard residues stand in square brackets, D forms with d. Aib = CC(C)(N)C(=O)O

Assays:
Assay in all cases: cell-based or functional assay
[1] = target: human GLP-2 receptor (hGLP2-R), splice variant rs17681684 (human) (UniProt O95838)
[2] = target: T1, human GLP-2 receptor (hGLP2-R), splice variant rs17681684 (human, UniProt O95838 1-553)
T1 sequence (looked up): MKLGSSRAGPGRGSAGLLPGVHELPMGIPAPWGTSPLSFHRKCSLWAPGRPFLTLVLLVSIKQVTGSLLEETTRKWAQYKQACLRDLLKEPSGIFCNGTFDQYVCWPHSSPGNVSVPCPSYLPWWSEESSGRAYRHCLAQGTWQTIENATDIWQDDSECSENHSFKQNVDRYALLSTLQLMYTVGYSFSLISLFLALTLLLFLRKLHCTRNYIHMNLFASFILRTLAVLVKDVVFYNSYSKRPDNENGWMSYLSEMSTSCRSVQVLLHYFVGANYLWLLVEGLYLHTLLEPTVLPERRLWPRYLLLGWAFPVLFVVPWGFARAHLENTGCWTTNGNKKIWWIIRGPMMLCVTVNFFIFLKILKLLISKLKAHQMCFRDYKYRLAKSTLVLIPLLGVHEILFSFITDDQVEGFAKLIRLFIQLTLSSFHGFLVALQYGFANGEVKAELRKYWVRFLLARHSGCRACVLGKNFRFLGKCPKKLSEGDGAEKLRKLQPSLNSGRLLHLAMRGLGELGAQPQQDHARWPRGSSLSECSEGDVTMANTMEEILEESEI

[3] = target: human glucagon-like peptide 1 receptor (GLP-1R) (human, UniProt P43220 24-463)

For “GLP-1 (from UniProt P01275 98-127) (peptide)”, the GLP-2R EC50 (nM), cAMP AlphaScreen on HEK293 cells expressing the receptor [1] was > 1000 nM.

B1: Compound 13: Hy-HGEGSFSSDLSTILEGKAARDFIEWLIQTKITD-OH (peptide)
peptide: H-HGEGSFSSDLSTILEGKAARDFIEWLIQTKITD-OH
For B1, the “GLP-2R EC50 (nM), cAMP AlphaScreen on HEK293 cells expressing the receptor” value (“GLP-2R EC50 (nM), cAMP AlphaScreen” for short) [2] was 0.1 nM and the “GLP-1R EC50 (nM), cAMP AlphaScreen on HEK293 cells expressing the receptor” value (“GLP-1R EC50 (nM), cAMP AlphaScreen” below) [3] was 18 nM.

B2: Compound 11: Hy-HGDGSFSSELATILDGQAARDFIAWLIQTKITD-OH (peptide)
peptide: H-HGDGSFSSELATILDGQAARDFIAWLIQTKITD-OH
B2 was tested, and the “GLP-2R EC50 (nM), cAMP AlphaScreen” value [2] was 0.2 nM and the “GLP-1R EC50 (nM), cAMP AlphaScreen” value [3] was 0.34 nM.

B3: Compound 4: Hy-HGDGSFSSEMNTILDSQAARDFINWLIQTKITD-OH (peptide)
peptide: H-HGDGSFSSEMNTILDSQAARDFINWLIQTKITD-OH
For B3, the “GLP-2R EC50 (nM), cAMP AlphaScreen” value [2] was 0.06 nM and the “GLP-1R EC50 (nM), cAMP AlphaScreen” value [3] was 25 nM.

B4: Compound 7: Hy-HGDGSFSSELATILDGKAARDFINWLIQTKITD-OH (peptide)
peptide: H-HGDGSFSSELATILDGKAARDFINWLIQTKITD-OH
For B4, the “GLP-2R EC50 (nM), cAMP AlphaScreen” value [2] was 0.2 nM and the “GLP-1R EC50 (nM), cAMP AlphaScreen” value [3] was 0.78 nM.

B5: Compound 8: Hy-HGEGTFTSDLSTILENKAARDFIEWLIQTKITD-OH (peptide)
peptide: H-HGEGTFTSDLSTILENKAARDFIEWLIQTKITD-OH
For B5, the “GLP-2R EC50 (nM), cAMP AlphaScreen” value [2] was 0.008 nM and the “GLP-1R EC50 (nM), cAMP AlphaScreen” value [3] was 16 nM.

B6: Compound 10: Hy-H-Aib-DGSFSDELNTILDGKAARDFINWLIQTK-NH2 (peptide)
peptide: H-H[Aib]DGSFSDELNTILDGKAARDFINWLIQTK-NH2
SMILES: CC[C@H](C)[C@H](NC(=O)[C@H](Cc1ccccc1)NC(=O)[C@H](CC(=O)O)NC(=O)[C@H](CCCNC(=N)N)NC(=O)[C@H](C)NC(=O)[C@H](C)NC(=O)[C@H](CCCCN)NC(=O)CNC(=O)[C@H](CC(=O)O)NC(=O)[C@H](CC(C)C)NC(=O)[C@@H](NC(=O)[C@@H](NC(=O)[C@H](CC(N)=O)NC(=O)[C@H](CC(C)C)NC(=O)[C@H](CCC(=O)O)NC(=O)[C@H](CC(=O)O)NC(=O)[C@H](CO)NC(=O)[C@H](Cc1ccccc1)NC(=O)[C@H](CO)NC(=O)CNC(=O)[C@H](CC(=O)O)NC(=O)C(C)(C)NC(=O)[C@@H](N)Cc1c[nH]cn1)[C@@H](C)O)[C@@H](C)CC)C(=O)N[C@@H](CC(N)=O)C(=O)N[C@@H](Cc1c[nH]c2ccccc12)C(=O)N[C@@H](CC(C)C)C(=O)N[C@H](C(=O)N[C@@H](CCC(N)=O)C(=O)N[C@H](C(=O)N[C@@H](CCCCN)C(N)=O)[C@@H](C)O)[C@@H](C)CC
With B6 the “GLP-2R EC50 (nM), cAMP AlphaScreen” value [2] was 3.9 nM and the “GLP-1R EC50 (nM), cAMP AlphaScreen” value [3] was 0.03 nM.

B7: Compound 2: Hy-HGDGSFSDEMNTILDNKAARDFINWLIQTKITD-OH (peptide)
peptide: H-HGDGSFSDEMNTILDNKAARDFINWLIQTKITD-OH
For B7, the “GLP-2R EC50 (nM), cAMP AlphaScreen” value [2] was 0.02 nM and the “GLP-1R EC50 (nM), cAMP AlphaScreen” value [3] was 77 nM.

B8: Compound 5: Hy-HGEGTFTSDLSKQMEGQAVRDFIEWLIQTKITD-OH (peptide)
peptide: H-HGEGTFTSDLSKQMEGQAVRDFIEWLIQTKITD-OH
In the case of B8, the “GLP-2R EC50 (nM), cAMP AlphaScreen” value [2] is reported as 0.2 nM and the “GLP-1R EC50 (nM), cAMP AlphaScreen” value [3] is reported as 1 nM.

B9: Compound 9: Hy-HGEGSFSSDLSTILENKAARDFIEWLIQTKITD-OH (peptide)
peptide: H-HGEGSFSSDLSTILENKAARDFIEWLIQTKITD-OH
In the case of B9, the “GLP-2R EC50 (nM), cAMP AlphaScreen” value [2] is reported as 0.2 nM and the “GLP-1R EC50 (nM), cAMP AlphaScreen” value [3] is reported as 9.1 nM.

B10: Compound 6: Hy-HGEGTFTSDLSKQMESKAARDFIEWLIQTKITD-OH (peptide)
peptide: H-HGEGTFTSDLSKQMESKAARDFIEWLIQTKITD-OH
For B10, the “GLP-1R EC50 (nM), cAMP AlphaScreen” value [3] was 1.1 nM.

B11: Compound 1: Hy-H-Aib-DGSFSDEMNTILDNQAARDFINWLIQTKITD-OH (peptide)
peptide: H-H[Aib]DGSFSDEMNTILDNQAARDFINWLIQTKITD-OH
SMILES: CC[C@H](C)[C@H](NC(=O)[C@H](Cc1ccccc1)NC(=O)[C@H](CC(=O)O)NC(=O)[C@H](CCCNC(=N)N)NC(=O)[C@H](C)NC(=O)[C@H](C)NC(=O)[C@H](CCC(N)=O)NC(=O)[C@H](CC(N)=O)NC(=O)[C@H](CC(=O)O)NC(=O)[C@H](CC(C)C)NC(=O)[C@@H](NC(=O)[C@@H](NC(=O)[C@H](CC(N)=O)NC(=O)[C@H](CCSC)NC(=O)[C@H](CCC(=O)O)NC(=O)[C@H](CC(=O)O)NC(=O)[C@H](CO)NC(=O)[C@H](Cc1ccccc1)NC(=O)[C@H](CO)NC(=O)CNC(=O)[C@H](CC(=O)O)NC(=O)C(C)(C)NC(=O)[C@@H](N)Cc1c[nH]cn1)[C@@H](C)O)[C@@H](C)CC)C(=O)N[C@@H](CC(N)=O)C(=O)N[C@@H](Cc1c[nH]c2ccccc12)C(=O)N[C@@H](CC(C)C)C(=O)N[C@H](C(=O)N[C@@H](CCC(N)=O)C(=O)N[C@H](C(=O)N[C@@H](CCCCN)C(=O)N[C@H](C(=O)N[C@H](C(=O)N[C@@H](CC(=O)O)C(=O)O)[C@@H](C)O)[C@@H](C)CC)[C@@H](C)O)[C@@H](C)CC
For B11, the “GLP-2R EC50 (nM), cAMP AlphaScreen” value [2] was 0.12 nM and the “GLP-1R EC50 (nM), cAMP AlphaScreen” value [3] was 44 nM.
